Assays:
[1] = biological target: Aβ1-40 monomer (rPeptide, A-1157-2) (UniProt P05067); assay: direct ELISA, coated Aβ1-40 monomer, 50 pmol per well
[2] = biological target: Aβ1-42 protofibril (UniProt P05067); assay: direct ELISA, coated Aβ1-42 protofibril, 50 pmol per well
[3] = biological target: biotin-labelled Aβ1-40 monomer (AnaSpec, AS-61483-01) (UniProt P05067); assay: capture ELISA, antibody coated at 100 ng per well, biotin-Aβ40 monomer
[4] = biological target: Aβ1-42 fibril (rPeptide, AF-1002) (UniProt P05067); assay: direct ELISA, coated Aβ1-42 fibril, 50 pmol per well

- EC50 [1]: 50000 nM
- EC50 [2]: 0.05 nM
- EC50 [3]: 0.067 nM
- EC50 [4]: 0.08 nM
Substance: non-conformation selective anti-Aβ antibody 6E10 (BioLegend, 803001)

From US20240301046A1
